Results taken from paper PMC11231340, “Werner helicase interacting protein 1 contributes to G-quadruplex processing in human cells”.

Assays:
GST-WRNIP1 [1] = target: T1, GST-WRNIP1 (Homo sapiens, UniProt Q96S55 1-665); assay: fluorescence anisotropy; Hill n 0.95; Anisotropy: 10 nM DNA, 50 mM Tris-HCl pH 7.5, 90 mM KCl, 5 mM EDTA, with or without 1 mM ATP and 1.25 mM MgCl2, 25 C; EMSA: 50 nM DNA, 50 mM Tris-HCl pH 7.5, 150 mM KCl, 15 min 25 C, 6% native gel; DNA folded in 25 mM Tris-HCl pH 7.5, 50 mM KCl; settings: protein: recombinant; (GST fusion); label: 5' FITC; intramolecular G4 with 3' ssDNA tail
T1 sequence: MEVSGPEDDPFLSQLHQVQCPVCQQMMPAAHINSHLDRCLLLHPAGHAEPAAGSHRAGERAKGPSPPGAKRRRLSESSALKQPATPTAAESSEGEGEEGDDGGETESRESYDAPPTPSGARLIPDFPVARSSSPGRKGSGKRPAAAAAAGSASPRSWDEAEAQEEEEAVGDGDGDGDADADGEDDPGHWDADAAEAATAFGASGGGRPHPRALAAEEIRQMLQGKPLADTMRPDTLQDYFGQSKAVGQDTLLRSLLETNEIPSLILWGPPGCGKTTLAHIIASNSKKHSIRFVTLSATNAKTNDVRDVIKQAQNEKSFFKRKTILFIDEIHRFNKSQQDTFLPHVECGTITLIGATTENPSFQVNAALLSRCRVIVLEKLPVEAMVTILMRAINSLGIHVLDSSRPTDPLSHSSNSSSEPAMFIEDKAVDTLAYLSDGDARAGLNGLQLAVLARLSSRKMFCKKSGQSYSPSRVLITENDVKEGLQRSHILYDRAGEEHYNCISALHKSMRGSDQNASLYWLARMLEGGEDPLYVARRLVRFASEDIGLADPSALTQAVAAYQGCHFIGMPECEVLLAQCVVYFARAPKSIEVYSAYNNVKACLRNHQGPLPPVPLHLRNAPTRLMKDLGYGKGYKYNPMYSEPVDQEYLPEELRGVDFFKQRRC

GST-WRNIP1 [2] = target: T1, GST-WRNIP1; assay: fluorescence anisotropy; Hill n 1.1; Anisotropy: 10 nM DNA, 50 mM Tris-HCl pH 7.5, 90 mM KCl, 5 mM EDTA, with or without 1 mM ATP and 1.25 mM MgCl2, 25 C; EMSA: 50 nM DNA, 50 mM Tris-HCl pH 7.5, 150 mM KCl, 15 min 25 C, 6% native gel; DNA folded in 25 mM Tris-HCl pH 7.5, 50 mM KCl; settings: protein: recombinant; (GST fusion); label: 5' FITC on strand 1; 21 bp duplex at 3' end of strand 1; 5' ss G4 overhang 27 nt; strand 2 5' TTT overhang
GST-WRNIP1 [3] = target: T1, GST-WRNIP1; assay: fluorescence anisotropy; Hill n 0.96; Anisotropy: 10 nM DNA, 50 mM Tris-HCl pH 7.5, 90 mM KCl, 5 mM EDTA, with or without 1 mM ATP and 1.25 mM MgCl2, 25 C; EMSA: 50 nM DNA, 50 mM Tris-HCl pH 7.5, 150 mM KCl, 15 min 25 C, 6% native gel; DNA folded in 25 mM Tris-HCl pH 7.5, 50 mM KCl; settings: protein: recombinant; (GST fusion); label: 5' FITC
GST-WRNIP1 [4] = target: T1, GST-WRNIP1; assay: fluorescence anisotropy; 1 mM ATP; Hill n 0.66; Anisotropy: 10 nM DNA, 50 mM Tris-HCl pH 7.5, 90 mM KCl, 5 mM EDTA, with or without 1 mM ATP and 1.25 mM MgCl2, 25 C; EMSA: 50 nM DNA, 50 mM Tris-HCl pH 7.5, 150 mM KCl, 15 min 25 C, 6% native gel; DNA folded in 25 mM Tris-HCl pH 7.5, 50 mM KCl; settings: protein: recombinant; (GST fusion); label: 5' FITC; intramolecular G4 with 3' ssDNA tail of 21 nt
GST-WRNIP1 [5] = target: T1, GST-WRNIP1; assay: fluorescence anisotropy; no ATP (ATP comparison series); Hill n 0.72; Anisotropy: 10 nM DNA, 50 mM Tris-HCl pH 7.5, 90 mM KCl, 5 mM EDTA, with or without 1 mM ATP and 1.25 mM MgCl2, 25 C; EMSA: 50 nM DNA, 50 mM Tris-HCl pH 7.5, 150 mM KCl, 15 min 25 C, 6% native gel; DNA folded in 25 mM Tris-HCl pH 7.5, 50 mM KCl; settings: protein: recombinant; (GST fusion); label: 5' FITC; intramolecular G4 with 3' ssDNA tail of 21 nt
GST-WRNIP1 [6] = target: T1, GST-WRNIP1; assay: fluorescence anisotropy; Hill n 0.55; Anisotropy: 10 nM DNA, 50 mM Tris-HCl pH 7.5, 90 mM KCl, 5 mM EDTA, with or without 1 mM ATP and 1.25 mM MgCl2, 25 C; EMSA: 50 nM DNA, 50 mM Tris-HCl pH 7.5, 150 mM KCl, 15 min 25 C, 6% native gel; DNA folded in 25 mM Tris-HCl pH 7.5, 50 mM KCl; settings: protein: recombinant; (GST fusion); label: 5' FITC; intramolecular G4 with 3' ssDNA tail of 21 nt
GST-WRNIP1 [7] = target: T1, GST-WRNIP1; assay: fluorescence anisotropy; Hill n 0.88; Anisotropy: 10 nM DNA, 50 mM Tris-HCl pH 7.5, 90 mM KCl, 5 mM EDTA, with or without 1 mM ATP and 1.25 mM MgCl2, 25 C; EMSA: 50 nM DNA, 50 mM Tris-HCl pH 7.5, 150 mM KCl, 15 min 25 C, 6% native gel; DNA folded in 25 mM Tris-HCl pH 7.5, 50 mM KCl; settings: protein: recombinant; (GST fusion); label: 5' FITC on strand 1; 21 bp duplex at 3' end of strand 1; 5' ss G4 overhang 21 nt; strand 2 5' TTT overhang

B1: CEB G4 ss (CEB25) (structured_DNA)
DNA: AAGGGTGGGTGTAAGTGTGGGTGGGTGCGTCTGCGGCTGGCTCGAGGC
GST-WRNIP1 [1]
  Kd: 65 ± 6 nM

B2: CEB G4 partial duplex (structured_DNA)
DNA 1: AAGGGTGGGTGTAAGTGTGGGTGGGTGCGTCTGCGGCTGGCTCGAGGC
DNA 2: TTTGCCTCGAGCCAGCCGCAGACG
GST-WRNIP1 [2]
  Kd: 221 ± 44 nM

B3: C-rich control (ssDNA)
DNA: ACTCCCACCCATCCCACCCACGCAGACGCCGACCGAGCTCCG
GST-WRNIP1 [3]
  Kd: 3.5 ± 0.511 µM

B4: MYC G4 ss (Myc2345) (structured_DNA)
DNA: TGAGGGTGGGTAGGGTGGGTGCGTCTGCGGCTGGCTCGAGGC
GST-WRNIP1 [4]
  Kd: 183 ± 52 nM
GST-WRNIP1 [5]
  Kd: 175 ± 43 nM
GST-WRNIP1 [6]
  Kd: 184 ± 36 nM

B5: MYC G4 partial duplex (structured_DNA)
DNA 1: TGAGGGTGGGTAGGGTGGGTGCGTCTGCGGCTGGCTCGAGGC
DNA 2: TTTGCCTCGAGCCAGCCGCAGACG
GST-WRNIP1 [7]
  Kd: 108 ± 45 nM
